Measured values from patent publication US20180030455A1.

Target: vitreal Sema3A of STZ-treated diabetic mice (endogenous mouse Semaphorin3A) (mouse) (UniProt O08665)
Test: cell-based or functional assay

Chain of UniProt O08665 (O08665 21-772 limits assumed): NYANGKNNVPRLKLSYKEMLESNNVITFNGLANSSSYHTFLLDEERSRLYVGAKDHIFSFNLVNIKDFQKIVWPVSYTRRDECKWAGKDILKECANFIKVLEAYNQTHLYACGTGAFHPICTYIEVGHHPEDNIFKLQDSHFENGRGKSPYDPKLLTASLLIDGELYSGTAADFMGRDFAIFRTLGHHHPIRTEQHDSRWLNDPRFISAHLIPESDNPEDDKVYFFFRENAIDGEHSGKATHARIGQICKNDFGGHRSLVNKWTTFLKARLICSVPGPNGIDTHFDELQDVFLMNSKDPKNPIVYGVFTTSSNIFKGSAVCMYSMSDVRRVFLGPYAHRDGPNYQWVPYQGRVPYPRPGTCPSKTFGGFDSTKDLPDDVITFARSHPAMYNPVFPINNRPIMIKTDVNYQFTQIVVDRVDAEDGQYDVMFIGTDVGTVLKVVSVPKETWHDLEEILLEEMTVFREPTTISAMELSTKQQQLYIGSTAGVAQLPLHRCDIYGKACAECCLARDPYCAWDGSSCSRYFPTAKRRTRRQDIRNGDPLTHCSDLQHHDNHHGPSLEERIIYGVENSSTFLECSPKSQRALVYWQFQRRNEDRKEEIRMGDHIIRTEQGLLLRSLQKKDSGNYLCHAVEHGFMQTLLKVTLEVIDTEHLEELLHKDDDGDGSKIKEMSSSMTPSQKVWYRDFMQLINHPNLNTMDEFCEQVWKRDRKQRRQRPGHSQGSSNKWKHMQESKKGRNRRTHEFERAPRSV

reduction in retinal permeability (Evans Blue permeation) at week 8 of diabetes, after intravitreal injection of rNrp-1 in STZ mice at weeks 6 and 7: 48.1%
Substance: recombinant mouse soluble Neuropilin-1 (rmNRP1) (from UniProt P97333 22-856) (receptor)
